From PMC6515530, “Characterization and Dye Decolorization Potential of Two Laccases from the Marine-Derived Fungus Pestalotiopsis sp” (International Journal of Molecular Sciences, 2019)

Legend:
Assay in all cases: purified protein
[1] = system: T1, COc1cc(C=NN=Cc2cc(OC)c(O)c(OC)c2)cc(OC)c1O; assay type: biochemical, Pestalotiopsis sp. KF079; conditions: pH 5, 30 °C
T1 construct: secreted by Aspergillus niger D15#26, purified

[2] = system: COc1cc(-c2ccc(N)c(OC)c2)ccc1N; conditions: pH 5, 30 °C
[3] = system: CCn1c(=NN=c2sc3cc(S(=O)(=O)O)ccc3n2CC)sc2cc(S(=O)(=O)O)ccc21; conditions: pH 4, 30 °C

Row | Substance | Km [1] [µM] | kcat [1] [s⁻¹] | kcat/Km [1] [M⁻¹ s⁻¹] | Km [2] [µM] | kcat [2] [s⁻¹] | kcat/Km [2] [M⁻¹ s⁻¹] | Km [3] [µM] | kcat [3] [s⁻¹] | kcat/Km [3] [M⁻¹ s⁻¹]
1 | PsLac1 (Pestalotiopsis sp.) | 4 | 0.365 | 82900 | 647 | 0.057 | 89 | 24 | 0.696 | 29200
2 | PsLac2 (Pestalotiopsis sp.) | 101 | 0.573 | 5670 | 144 | 0.748 | 5190 | 100 | 0.431 | 4330
